{"source": "the nanobody polyreactivity screen of Harvey et al. (2022)", "data": [{"experiment": "yeast display, Sf9 membrane polyspecificity reagent, FACS + sequencing; frameworks hold sequencing errors", "procedure,_shortened": "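Synthetic nanobody libraries on Saccharomyces cerevisiae BJ5465 were galactose-induced for 36–48 hours, stained 1 hour at 4 °C with 10% biotinylated, detergent-solubilized Sf9 membrane reagent and enriched on streptavidin microbeads. FACS then separated cells into low and high (top ~1%) gates by anti-HA (expression) and streptavidin (reagent binding) fluorescence. Genes were colony-PCR amplified, MiSeq 2 × 250 sequenced and CDR-length filtered. A clone's polyreactivity label is that of its gate of origin.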", "values": [{"sequence": "HVQHVESGGGLVHAGGSLRLRCAASGSIFVYYAMGWYRQAPGKERELVAAISGGGGRKYYADSVKGRFTISRDNANNTVYLQMNSLKPDDTAVYYCAARRATYPGGFYSWGQGSQVTVSS", "polyreactivity (PSR sort gate)": "high polyreactivity"}, {"sequence": "QVQLVESGGCLVQAGGSLRLSCAASGSIFDVNAMGLYRQAPGKERELVAAISDSGGSTYYADSVKGRFTISRDNAKNTVYLQMNSLKPEDTAVYYCNADWSLYNYYDFDYWGQGTQVTVSS", "polyreactivity (PSR sort gate)": "low polyreactivity"}, {"sequence": "QVQLVESGGGLVQAGGSLRLSCAASGFTFSYNAMGWYRQAPGKERELVAVIKSSGGRTYYADSVKGRFTISRDNAKNTVYLQMNSLKPEDTAVYYCNAVYLQHRYRMYYWGQGTQVTVSS", "polyreactivity (PSR sort gate)": "high polyreactivity"}, {"sequence": "QVQLVESGGGLVQAGGSLRLSCAASGFIFRRYAMGWYGQAPGKERELVAVIRSSGGSTYYADSVKGRFTISRDYAKNTVYLQMISLNPEDTAVYYCAAVSYSSYRYDYWGQGTQVTVSS", "polyreactivity (PSR sort gate)": "high polyreactivity"}, {"sequence": "QVHLVESGGGLVQAGGSLRLSCAASGIPLYFYAMGWYRQAPGKERELVAAISRGGRTYYADSVKGRFTISRDNAKYTVYLQMNSLKPEDTAVYYCAARYTSEYSAFDYWGQGTQVTVSS", "polyreactivity (PSR sort gate)": "low polyreactivity"}, {"sequence": "QVHLVESGGGLVQAGGSLRLSCAASGITLRVYVMGWYRQAPGKERELVAAITSRGDRTYYADSVKGRFTISRDNAKNTVYLQMNSLKPEDTAVYYCAASRWRDAGHSYDYWGQGTQVTVSS", "polyreactivity (PSR sort gate)": "high polyreactivity"}, {"sequence": "QVQLVESGGGLVQAGGSLRLSCAASGFTLYNNAMGWYRQAPGKERELVARISGSGGSTYYADSVKGRFTISRDNAKNTVYLQMNSLKPEDTAVYYCNARATYVPTYGYTHWYNYWGQGTQVTVSS", "polyreactivity (PSR sort gate)": "low polyreactivity"}, {"sequence": "QVQLVESGGGLVQAGGSLRLSCAASGSTFRLYAMGCYRPAPGKERELVAVISRSGGRTYADSVKGRFTISRDNAKNTVYLQMNSLKPEDTAVYYCAKARHKSPTYTHDSWGQGTQVTVSS", "polyreactivity (PSR sort gate)": "high polyreactivity"}, {"sequence": "QVQLVESGGGLVQAGGSLRLSCAASGRTFTYNAMGWYRQAPGKERELVAAITYRGGSTYYADSVKGRFTISRDNAKNTVYLQMNSLKPEDTAVYYCAARVSYYRYNTPHYYYWGQGTQVTVSS", "polyreactivity (PSR sort gate)": "high polyreactivity"}, {"sequence": "QVQHVESGGGLVQAGGSLRLSCAASGYTFFANAMGGYRQAPGKERELVAGINRSGSTYYADSVKGRFTISRDNAKNTVYLQMNSLKPEDTAVYYFATAWHRGVRGRTSGAFDYWGQGTQVTVSS", "polyreactivity (PSR sort gate)": "high polyreactivity"}, {"sequence": "QVQLVESGGGLVQAGGSLRLSCAASGYAMGWYRQAPGKERELGAAITSGGSTNYADSVKGRFTISRDNAKNTVYLQMNSVKPEDTAVYYCAAAYSLYGHRYDYWGQGTQVTVSS", "polyreactivity (PSR sort gate)": "low polyreactivity"}, {"sequence": "QVQLVESGGGLVQAGGSLRLSCAASGSIFTDYAMGWYRQAPGKERELVAAITSSGGSTYYADSVKGRFTISRDNAKNTVYLQMNSLKPEDTAVYYCDADRITIYDYWGQGTQVTVSS", "polyreactivity (PSR sort gate)": "low polyreactivity"}, {"sequence": "QVQLVESGGGLVQAGGSLRLSCAASGNTFRYYAMGWYRQAPGKERELVATITSGGRTYYADSVKGRFTISRDNAKNTVYLQMNSLKPEDTAVYYCAAVGLDYFVGEYDYWGQGTQLTVSS", "polyreactivity (PSR sort gate)": "low polyreactivity"}, {"sequence": "QVHLVESGGGLVQAGGSLRLSCPASGSTIRRYAMGWYRQPHGKERELVAAIRQRGTYTYYADSVKGRFTISRDTAKNTVYLQMNSLKPEDTAVYYCSGVPSLWLFNSWGQGTQVTVSS", "polyreactivity (PSR sort gate)": "high polyreactivity"}, {"sequence": "QVQLVESGGGLVQAGGSLRLSCAASGRIFAGYAMGWYRQAPGKERELVAAISSGGGSTYYADSVKGRFTISRDNAKNTVYLQMNSLKPEDTAVYYCARDSYPHGRARFDYWGQGTQVTVSS", "polyreactivity (PSR sort gate)": "high polyreactivity"}, {"sequence": "QVQLVESGGGLVQAGGSLRLSCAASGSTFGEYAMGWYRQAPGKERELVAAITSSGGSTYYADSVKGRFTISRDNAKNTVYLQMNSLKPEDTAVYYCAADWDYPYDEAVSKDIDYDYWGQGTQVTVSS", "polyreactivity (PSR sort gate)": "low polyreactivity"}, {"sequence": "QDQLVESGGGLVQAGGSLRLSCAASGSIFKINAMGWYRQATGKERELVATITWSTGTTYYADSVKGRFTISRDNAKNTVYLQMNSLKPEDTAVYYCATDGDSTKLDYWGQGTQVTVSS", "polyreactivity (PSR sort gate)": "low polyreactivity"}, {"sequence": "QVQLVESGGGLVQAGGSLRISCAASGLIFRHNAMGWYRQAPGKERELVAAITGSGSTYYADSEKGRFTISRDNAKNTVYLQMNSLKPEDTAVYYGNADYPGGLQEEDYWGQGTQVTVSS", "polyreactivity (PSR sort gate)": "low polyreactivity"}, {"sequence": "QVQLVESGGGLVQAGGSLRLSCAASGSIFRQYAMGWYRQAPGKERELVAAITYSGGNTYYADSVKGRFTISRDNAKNTVYLQMNSLKPEDTAVYYCAADYGSRSWEYNYWGQGTQVTVSS", "polyreactivity (PSR sort gate)": "low polyreactivity"}, {"sequence": "QVQLVESGGGLVQAGGSLRLSCAASGITFVPNAMGWYRQAPGKERELVAAINNGGSTYYADSVKGRFTISRDNAKNTVYLQMNSLKPEDTAVYYCAAVSLSTVRGYYYWGQGTQVTVSS", "polyreactivity (PSR sort gate)": "low polyreactivity"}, {"sequence": "QVQLVESGGGLVQAGGSLRLSCAASGSTFRYYAMGWYRQAPGKERELVASITSTGSTNYADSVKGRFTISRDNAKNTVYLQMNSLKPEDTAVYYCAAYRPYFGIAYGYWGQGTQVTVSS", "polyreactivity (PSR sort gate)": "high polyreactivity"}]}]}
